Reference: EP1379283B1, “IDENTIFICATION OF TARGET-SPECIFIC FOLDING SITES IN PEPTIDES AND PROTEINS” (Palatin Technologies, Inc., priority 2000, dated 2002)
Square brackets hold non-standard residues; d marks the D form. Ends that are not written are not given here. * marks the point of attachment. Cyclohexylacetyl(1-SH) = O=C(CC1(S)CCCCC1)*; Cyclohexylacetyl = O=C(CC1CCCCC1)*; dChg = N[C@@H](C(=O)O)C1CCCCC1; Chg = N[C@H](C(=O)O)C1CCCCC1; Nle = CCCC[C@H](N)C(=O)O; Orn = NCCC[C@H](N)C(=O)O; Dap = NC[C@H](N)C(=O)O

Key:
hMC3-R (human) = hMC3-R (human) (UniProt P41968); assay: competition with 0.4 nM 125I-NDP-alpha-MSH on hMC3-R membranes, metallopeptide at 1 µM
hMC4-R (human) = hMC4-R (human) (UniProt P32245); assay: competition with 0.4 nM 125I-NDP-alpha-MSH on hMC4-R membranes, metallopeptide at 1 µM
hMC5-R (human) = hMC5-R (human) (UniProt P33032); assay: competition with 0.4 nM 125I-NDP-alpha-MSH on hMC5-R membranes, metallopeptide at 1 µM
[1] = molecular target: MC1-R of B-16 mouse melanoma cells (mouse) (UniProt Q01727); assay: competition with 0.4 nM 125I-NDP-alpha-MSH on B-16 mouse melanoma cell membranes, metallopeptide at 1 µM
[2] = molecular target: oxytocin receptor of rat uterus cell membranes (rat) (UniProt P70536); assay: competition with 3H-oxytocin on rat uterus membranes, metallopeptide at 1 µM
[3] = molecular target: vasopressin-1 receptor of rat liver cell membranes (rat) (UniProt P30560); assay: competition with 3H-vasopressin-1 antagonist on rat liver membranes, metallopeptide at 1 µM
Chain of vasopressin-1 receptor of rat liver cell membranes (rat) (P30560 whole entry): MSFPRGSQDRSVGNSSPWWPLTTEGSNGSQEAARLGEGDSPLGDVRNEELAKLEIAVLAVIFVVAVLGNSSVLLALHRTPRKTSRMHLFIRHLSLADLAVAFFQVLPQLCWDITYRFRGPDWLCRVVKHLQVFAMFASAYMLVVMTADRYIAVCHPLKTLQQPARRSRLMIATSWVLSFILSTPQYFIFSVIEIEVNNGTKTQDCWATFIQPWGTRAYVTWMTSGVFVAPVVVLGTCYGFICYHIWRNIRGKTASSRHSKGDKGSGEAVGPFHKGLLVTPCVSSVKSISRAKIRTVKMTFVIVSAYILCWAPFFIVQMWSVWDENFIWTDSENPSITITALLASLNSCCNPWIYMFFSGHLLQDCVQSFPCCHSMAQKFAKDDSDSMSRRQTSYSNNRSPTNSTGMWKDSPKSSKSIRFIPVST

Chain of MC1-R of B-16 mouse melanoma cells (mouse) (Q01727 whole entry): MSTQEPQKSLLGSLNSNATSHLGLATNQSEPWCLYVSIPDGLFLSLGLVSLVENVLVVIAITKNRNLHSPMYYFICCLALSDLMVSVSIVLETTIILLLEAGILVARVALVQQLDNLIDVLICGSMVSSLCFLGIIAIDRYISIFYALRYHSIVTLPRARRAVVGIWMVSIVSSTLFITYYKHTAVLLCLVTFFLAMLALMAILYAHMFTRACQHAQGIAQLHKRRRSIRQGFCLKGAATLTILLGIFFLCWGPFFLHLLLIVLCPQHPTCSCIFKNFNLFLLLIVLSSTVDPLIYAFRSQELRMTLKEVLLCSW
Chain of hMC4-R (human) (P32245 whole entry): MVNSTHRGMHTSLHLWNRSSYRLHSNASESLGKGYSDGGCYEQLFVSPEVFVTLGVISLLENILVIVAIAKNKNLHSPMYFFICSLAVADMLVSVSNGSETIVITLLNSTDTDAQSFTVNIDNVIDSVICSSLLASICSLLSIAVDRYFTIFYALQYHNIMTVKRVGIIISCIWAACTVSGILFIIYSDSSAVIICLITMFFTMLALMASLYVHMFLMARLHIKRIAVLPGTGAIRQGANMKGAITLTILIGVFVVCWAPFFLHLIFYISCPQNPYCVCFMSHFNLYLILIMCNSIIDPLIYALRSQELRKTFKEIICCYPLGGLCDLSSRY
Chain of hMC3-R (human) (P41968 whole entry): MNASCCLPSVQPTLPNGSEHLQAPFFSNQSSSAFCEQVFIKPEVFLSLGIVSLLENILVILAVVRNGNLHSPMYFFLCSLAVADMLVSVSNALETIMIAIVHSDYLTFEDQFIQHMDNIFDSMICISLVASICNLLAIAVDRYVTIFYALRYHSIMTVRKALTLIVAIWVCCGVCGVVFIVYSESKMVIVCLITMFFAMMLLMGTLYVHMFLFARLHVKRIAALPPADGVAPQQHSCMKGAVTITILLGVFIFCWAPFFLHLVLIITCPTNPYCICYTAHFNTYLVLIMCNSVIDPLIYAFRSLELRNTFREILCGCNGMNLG
Chain of hMC5-R (human) (P33032 whole entry): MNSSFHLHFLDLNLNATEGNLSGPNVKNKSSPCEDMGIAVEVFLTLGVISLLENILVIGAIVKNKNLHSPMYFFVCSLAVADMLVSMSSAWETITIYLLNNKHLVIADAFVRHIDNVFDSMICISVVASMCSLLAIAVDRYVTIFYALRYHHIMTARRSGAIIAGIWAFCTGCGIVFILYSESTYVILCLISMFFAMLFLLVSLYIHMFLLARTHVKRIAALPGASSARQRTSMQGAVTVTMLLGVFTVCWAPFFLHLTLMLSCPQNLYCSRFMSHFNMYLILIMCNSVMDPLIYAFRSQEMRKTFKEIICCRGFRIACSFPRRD
Chain of oxytocin receptor of rat uterus cell membranes (rat) (P70536 whole entry): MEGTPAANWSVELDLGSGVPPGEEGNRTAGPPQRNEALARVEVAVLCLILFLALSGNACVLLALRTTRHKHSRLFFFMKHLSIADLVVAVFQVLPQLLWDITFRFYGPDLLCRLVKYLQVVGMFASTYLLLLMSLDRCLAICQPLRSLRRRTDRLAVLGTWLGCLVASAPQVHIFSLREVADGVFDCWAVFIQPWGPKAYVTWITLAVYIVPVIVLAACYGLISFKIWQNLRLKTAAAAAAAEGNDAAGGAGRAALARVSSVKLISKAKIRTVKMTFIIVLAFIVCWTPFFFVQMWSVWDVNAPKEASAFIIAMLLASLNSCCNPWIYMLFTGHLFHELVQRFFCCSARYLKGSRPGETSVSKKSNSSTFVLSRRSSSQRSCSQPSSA

| Binder | % Inhibition at 1 µM (hMC3-R (human)) [%] | % Inhibition at 1 µM (hMC4-R (human)) [%] | % Inhibition at 1 µM (hMC5-R (human)) [%] | % Inhibition at 1 µM [1] [%] | % Inhibition at 1 µM [2] [%] | % Inhibition at 1 µM [3] [%] |
| --- | --- | --- | --- | --- | --- | --- |
| Ac-[Nle]ACH[dF]RW-NH2 (bridge (positions not given here) via ReOCl3(PPh3)2; also: oxorhenium(V) N3S1 metal chelate (X-X-Cys)) [Re-complexed Ac-Nle-Ala-Cys-His-D-Phe-Arg-Trp-NH2] | 47 | 71 | 64 | 96 | – | – |
| Ac-[Nle]AHC[dF]RW-NH2 (bridge (positions not given here) via ReOCl3(PPh3)2; also: oxorhenium(V) metal complex) [Re-complexed Ac-Nle-Ala-His-Cys-D-Phe-Arg-Trp-NH2] | 9 | 75 | 58 | 84 | – | – |
| Ac-[Nle]AH[dF]CRW-NH2 (bridge (positions not given here) via ReOCl3(PPh3)2; also: oxorhenium(V) metal complex) [Re-complexed Ac-Nle-Ala-His-D-Phe-Cys-Arg-Trp-NH2] | 15 | 66 | 57 | 93 | – | – |
| XAHFRCW (N-terminal acetyl; X at 1 = Nle; D-Phe at 4; Cys 6 complexed to a rhenium-oxo (Re) metal ion; C-terminal amide) [Re-complexed Ac-Nle-Ala-His-D-Phe-Arg-Cys-Trp-NH2] | – | – | – | 96 | – | – |
| Ac-[Nle]AH[dF]RWC-NH2 (bridge (positions not given here) via ReOCl3(PPh3)2; also: oxorhenium(V) metal complex) [Re-complexed Ac-Nle-Ala-His-D-Phe-Arg-Trp-Cys-NH2] | 70 | 98 | 93 | 91 | – | – |
| Cyclohexylacetyl-[dW]IT[Dap]AA[Orn]C-NH2 (numbers in words are those of the source; also: rhenium-oxo (Re(V)=O) complex at Cys9) [Re-complexed Caca-D-Trp-Ile-Thr-Dap-Ala-Ala-Orn-Cys-NH2] | – | – | – | – | 0 | 23 |
| Cyclohexylacetyl-[dW]IT[Dap]AAC[Orn]-NH2 (numbers in words are those of the source; also: rhenium-oxo (Re(V)=O) complex at Cys8) [Re-complexed Caca-D-Trp-Ile-Thr-Dap-Ala-Ala-Cys-Orn-NH2] | – | – | – | – | 0 | 0 |
| Cyclohexylacetyl-[dW]IT[Dap]ACA[Orn]-NH2 (not fully specified (bridges); printed as Caca-D-Trp-Ile-Thr-*Dap-Ala-Cys*-Ala-Orn-NH₂; numbers in words are those of the source; also: Cys7 complexed to rhenium-oxo (Re=O)) [Re-complexed Caca-D-Trp-Ile-Thr-Dap-Ala-Cys-Ala-Orn-NH2] | – | – | – | – | 0 | 0 |
| Cyclohexylacetyl-[dW]IT[Dap]ACP[Orn]-NH2 (not fully specified (bridges); printed as Caca-D-Trp-Ile-Thr-*Dap-Ala-Cys*-Pro-Orn-NH₂; numbers in words are those of the source; also: Cys7 complexed to rhenium-oxo (Re=O)) [Re-complexed Caca-D-Trp-Ile-Thr-Dap-Ala-Cys-Pro-Orn-NH2] | – | – | – | – | 0 | 0 |
| Cyclohexylacetyl-[dW]IT[Dap]CAP[Orn]-NH2 (not fully specified (bridges); printed as Caca-D-Trp-Ile-*Thr-Dap-Cys*-Ala-Pro-Orn-NH₂; numbers in words are those of the source; also: Cys6 complexed to rhenium-oxo (Re=O)) [Re-complexed Caca-D-Trp-Ile-Thr-Dap-Cys-Ala-Pro-Orn-NH2] | – | – | – | – | 9 | 22 |
| Cyclohexylacetyl-[dW]ITC[Dap]AP[Orn]-NH2 (not fully specified (bridges); printed as Caca-D-Trp-*Ile-Thr-Cys*-Dap-Ala-Pro-Orn-NH₂; numbers in words are those of the source; also: Cys5 complexed to rhenium-oxo (Re=O)) [Re-complexed Caca-D-Trp-Ile-Thr-Cys-Dap-Ala-Pro-Orn-NH2] | – | – | – | – | 0 | 0 |
| Cyclohexylacetyl-[dW]ICT[Dap]AP[Orn]-NH2 (not fully specified (bridges); printed as Caca-D-*Trp-Ile-Cys*-Thr-Dap-Ala-Pro-Orn-NH₂; numbers in words are those of the source; also: Cys4 complexed to rhenium-oxo (Re=O)) [Re-complexed Caca-D-Trp-Ile-Cys-Thr-Dap-Ala-Pro-Orn-NH2] | – | – | – | – | 0 | 52 |
| {Cyclohexylacetyl(1-SH)}-[dW]CIT[Dap]AP[Orn]-NH2 (not fully specified (bridges); printed as *Pmp-D-Trp-Cys*-Ile-Thr-Dap-Ala-Pro-Orn-NH₂; numbers in words are those of the source; also: Cys3 complexed to rhenium-oxo (Re=O)) [Re-complexed Pmp-D-Trp-Cys-Ile-Thr-Dap-Ala-Pro-Orn-NH2] | – | – | – | – | 0 | 23 |
| [Chg][dW]CIT[Dap]AP[Orn]-NH2 (not fully specified (bridges); printed as Re-complexed Chg-D-Trp-Cys-Ile-Thr-Dap-Ala-Pro-Orn-NH2; also: Cys3 complexed to rhenium-oxo (Re=O)) [Re-complexed Chg-D-Trp-Cys-Ile-Thr-Dap-Ala-Pro-Orn-NH2] | – | – | – | – | 0 | 0 |
| [dChg][dW]CIT[Dap]AP[Orn]-NH2 (bridge (positions not given here); not fully specified (bridges); printed as Re-complexed D-Chg-D-Trp-Cys-Ile-Thr-Dap-Ala-Pro-Orn-NH2; also: oxorhenium(V) metal complex) [Re-complexed D-Chg-D-Trp-Cys-Ile-Thr-Dap-Ala-Pro-Orn-NH2] | – | – | – | – | 0 | 8 |
